Results: PMC9482650, “Quantitative fragmentomics allow affinity mapping of interactomes” (Nature Communications, 2022)
Residue numbers refer to the chain shown, from its start.

B1: EZH1, Q92800 (peptide)
chain: VGIERETDVL
B2: LSM14A, Q8ND56;Q8ND56-2 (peptide)
chain: EYRKDNKVAA
B3: PPP1R3G, B7ZBB8 (peptide)
chain: LRYARPADAL

biological target: Inadl_3, Q8NI35; test: holdup assay; set-up: key: below the threshold = too weak to quantify, mostly under pKd 3.1 to 4; settings: plain residues with an end cap or a label only (N-terminal biotin on a linker: ado-ado)
Sequence (Q8NI35 359-469): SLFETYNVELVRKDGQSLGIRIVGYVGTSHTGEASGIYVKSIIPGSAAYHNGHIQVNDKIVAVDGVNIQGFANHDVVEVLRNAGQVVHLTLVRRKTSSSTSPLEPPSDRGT

Binder | pKd
B1 | below the threshold
B2 | below the threshold
B3 | below the threshold

biological target: FRMPD2_2, Q68DX3; test: holdup assay; set-up: key: below the threshold = too weak to quantify, mostly under pKd 3.1 to 4; settings: plain residues with an end cap or a label only (N-terminal biotin on a linker: ado-ado)
Sequence (Q68DX3 944-1038): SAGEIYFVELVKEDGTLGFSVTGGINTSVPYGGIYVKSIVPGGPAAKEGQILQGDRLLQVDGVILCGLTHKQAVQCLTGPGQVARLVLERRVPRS

Binder | pKd
B1 | below the threshold
B2 | below the threshold
B3 | below the threshold

biological target: T1, RAPGEF6, Q8TEU7; test: holdup assay; set-up: key: below the threshold = too weak to quantify, mostly under pKd 3.1 to 4; settings: plain residues with an end cap or a label only (N-terminal biotin on a linker: ado-ado)
T1 sequence (Q8TEU7 525-625, limits assumed, looked up): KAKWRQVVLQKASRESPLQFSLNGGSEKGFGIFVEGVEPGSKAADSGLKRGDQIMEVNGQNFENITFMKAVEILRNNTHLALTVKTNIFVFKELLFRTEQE

Binder | pKd
B1 | below the threshold
B2 | below the threshold
B3 | below the threshold

biological target: T2, LIN7A, O14910; test: holdup assay; set-up: key: below the threshold = too weak to quantify, mostly under pKd 3.1 to 4; settings: plain residues with an end cap or a label only (N-terminal biotin on a linker: ado-ado)
T2 sequence (O14910 103-200, limits assumed, looked up): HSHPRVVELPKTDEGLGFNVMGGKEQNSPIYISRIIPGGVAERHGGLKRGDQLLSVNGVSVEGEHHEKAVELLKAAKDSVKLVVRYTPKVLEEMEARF

Binder | pKd
B2 | below the threshold
B3 | below the threshold

biological target: T3, FRMPD1, Q5SYB0; test: holdup assay; set-up: key: below the threshold = too weak to quantify, mostly under pKd 3.1 to 4; settings: plain residues with an end cap or a label only (N-terminal biotin on a linker: ado-ado)
T3 sequence (Q5SYB0 52-145, limits assumed, looked up): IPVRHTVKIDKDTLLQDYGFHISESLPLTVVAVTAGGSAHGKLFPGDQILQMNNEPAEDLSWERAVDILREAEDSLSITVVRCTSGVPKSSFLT

Binder | pKd
B1 | below the threshold
B2 | below the threshold
B3 | below the threshold

biological target: SCRIB_2, Q14160; test: holdup assay; set-up: key: below the threshold = too weak to quantify, mostly under pKd 3.1 to 4; settings: plain residues with an end cap or a label only (N-terminal biotin on a linker: ado-ado)
Sequence (Q14160 857-960): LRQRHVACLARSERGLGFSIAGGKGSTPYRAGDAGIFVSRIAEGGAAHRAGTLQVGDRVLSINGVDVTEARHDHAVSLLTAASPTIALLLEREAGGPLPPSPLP

Binder | pKd
B1 | below the threshold
B2 | below the threshold
B3 | below the threshold

biological target: SNX27, Q96L92; test: holdup assay; set-up: key: below the threshold = too weak to quantify, mostly under pKd 3.1 to 4; settings: plain residues with an end cap or a label only (N-terminal biotin on a linker: ado-ado)

Binder | pKd
B1 | below the threshold
B2 | below the threshold
B3 | 3.49

biological target: T4, LNX2_2, Q8N448; test: holdup assay; set-up: key: below the threshold = too weak to quantify, mostly under pKd 3.1 to 4; settings: plain residues with an end cap or a label only (N-terminal biotin on a linker: ado-ado)
T4 sequence (Q8N448 334-432, limits assumed, looked up): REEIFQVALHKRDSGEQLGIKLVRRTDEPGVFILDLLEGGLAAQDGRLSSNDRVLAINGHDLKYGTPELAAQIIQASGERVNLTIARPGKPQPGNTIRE

Binder | pKd
B1 | below the threshold
B2 | below the threshold
B3 | below the threshold

biological target: T5, SIPA1L2, Q9P2F8; test: holdup assay; set-up: key: below the threshold = too weak to quantify, mostly under pKd 3.1 to 4; settings: plain residues with an end cap or a label only (N-terminal biotin on a linker: ado-ado)
T5 sequence (Q9P2F8 945-1036, limits assumed, looked up): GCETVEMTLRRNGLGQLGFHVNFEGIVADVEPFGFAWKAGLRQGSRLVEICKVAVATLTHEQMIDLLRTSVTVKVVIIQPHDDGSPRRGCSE

Binder | pKd
B1 | below the threshold
B2 | below the threshold
B3 | below the threshold

biological target: LNX1_2, Q8TBB1; test: holdup assay; set-up: key: below the threshold = too weak to quantify, mostly under pKd 3.1 to 4; settings: plain residues with an end cap or a label only (N-terminal biotin on a linker: ado-ado)
Sequence (Q8TBB1 371-470): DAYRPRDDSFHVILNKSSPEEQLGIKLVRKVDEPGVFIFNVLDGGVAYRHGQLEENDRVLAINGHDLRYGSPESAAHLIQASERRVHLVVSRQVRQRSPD

Binder | pKd
B1 | below the threshold
B2 | below the threshold
B3 | below the threshold

biological target: T6, SYNJ2BP, P57105; test: holdup assay; set-up: key: below the threshold = too weak to quantify, mostly under pKd 3.1 to 4; settings: plain residues with an end cap or a label only (N-terminal biotin on a linker: ado-ado)
T6 sequence (P57105 8-110, limits assumed, looked up): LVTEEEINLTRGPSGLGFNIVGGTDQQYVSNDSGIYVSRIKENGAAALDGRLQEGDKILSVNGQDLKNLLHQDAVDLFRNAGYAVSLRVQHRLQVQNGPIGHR

Binder | pKd
B1 | below the threshold
B2 | below the threshold
B3 | below the threshold

biological target: T7, TIAM2, Q8IVF5; test: holdup assay; set-up: key: below the threshold = too weak to quantify, mostly under pKd 3.1 to 4; settings: plain residues with an end cap or a label only (N-terminal biotin on a linker: ado-ado)
T7 sequence (Q8IVF5 885-986, limits assumed, looked up): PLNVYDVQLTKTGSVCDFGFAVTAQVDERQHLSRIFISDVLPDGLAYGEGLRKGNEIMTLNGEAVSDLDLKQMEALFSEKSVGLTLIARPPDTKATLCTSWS

Binder | pKd
B1 | 3.49
B2 | 4.1
B3 | below the threshold

biological target: DLG1_2, Q12959; test: holdup assay; set-up: key: below the threshold = too weak to quantify, mostly under pKd 3.1 to 4; settings: plain residues with an end cap or a label only (N-terminal biotin on a linker: ado-ado)
Sequence (Q12959 314-412): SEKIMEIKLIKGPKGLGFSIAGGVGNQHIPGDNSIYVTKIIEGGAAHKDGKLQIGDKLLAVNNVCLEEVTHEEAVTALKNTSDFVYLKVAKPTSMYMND

Binder | pKd
B1 | 3.85
B2 | below the threshold
B3 | 3.53

biological target: HTRA1, Q92743; test: holdup assay; set-up: key: below the threshold = too weak to quantify, mostly under pKd 3.1 to 4; settings: plain residues with an end cap or a label only (N-terminal biotin on a linker: ado-ado)
Sequence (Q92743 360-477): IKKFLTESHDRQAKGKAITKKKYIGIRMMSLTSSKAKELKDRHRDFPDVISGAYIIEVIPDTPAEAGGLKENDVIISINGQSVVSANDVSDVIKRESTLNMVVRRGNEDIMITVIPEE

Binder | pKd
B1 | 4.17
B3 | 3.67

biological target: PTPN3, P26045; test: holdup assay; set-up: key: below the threshold = too weak to quantify, mostly under pKd 3.1 to 4; settings: plain residues with an end cap or a label only (N-terminal biotin on a linker: ado-ado)
Sequence (P26045 505-587): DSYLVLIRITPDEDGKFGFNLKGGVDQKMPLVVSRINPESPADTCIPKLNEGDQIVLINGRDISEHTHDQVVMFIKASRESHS

Binder | pKd
B1 | 3.52
B2 | 3.95
B3 | below the threshold

biological target: DLG4_2, P78352; test: holdup assay; set-up: key: below the threshold = too weak to quantify, mostly under pKd 3.1 to 4; settings: plain residues with an end cap or a label only (N-terminal biotin on a linker: ado-ado)
Sequence (P78352 155-259): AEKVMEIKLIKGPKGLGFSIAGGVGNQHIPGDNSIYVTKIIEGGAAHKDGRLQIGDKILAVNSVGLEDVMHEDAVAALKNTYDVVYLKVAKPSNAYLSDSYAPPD

Binder | pKd
B1 | below the threshold
B3 | below the threshold

biological target: T8, DFNB31_1, Q9P202; test: holdup assay; set-up: key: below the threshold = too weak to quantify, mostly under pKd 3.1 to 4; settings: plain residues with an end cap or a label only (N-terminal biotin on a linker: ado-ado)
T8 sequence (Q9P202 135-233, limits assumed, looked up): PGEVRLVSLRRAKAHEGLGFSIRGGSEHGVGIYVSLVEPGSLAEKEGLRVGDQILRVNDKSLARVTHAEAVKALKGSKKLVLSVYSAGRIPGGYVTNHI

Binder | pKd
B1 | below the threshold
B2 | below the threshold
B3 | below the threshold

biological target: T9, NHERF3_4, Q5T2W1; test: holdup assay; set-up: key: below the threshold = too weak to quantify, mostly under pKd 3.1 to 4; settings: plain residues with an end cap or a label only (N-terminal biotin on a linker: ado-ado)
T9 sequence (Q5T2W1 373-468, limits assumed, looked up): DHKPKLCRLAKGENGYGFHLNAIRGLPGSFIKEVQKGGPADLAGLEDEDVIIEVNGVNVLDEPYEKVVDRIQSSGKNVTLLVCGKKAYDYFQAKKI

Binder | pKd
B1 | below the threshold
B2 | below the threshold
B3 | below the threshold

biological target: T10, PDZD7_3, Q9H5P4; test: holdup assay; set-up: key: below the threshold = too weak to quantify, mostly under pKd 3.1 to 4; settings: plain residues with an end cap or a label only (N-terminal biotin on a linker: ado-ado)
T10 sequence (Q9H5P4 857-944, limits assumed, looked up): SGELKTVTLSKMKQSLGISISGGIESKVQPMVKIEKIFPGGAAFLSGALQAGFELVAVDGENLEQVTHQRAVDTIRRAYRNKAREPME

Binder | pKd
B1 | below the threshold
B2 | below the threshold
B3 | below the threshold

biological target: MAST2, Q6P0Q8; test: holdup assay; set-up: key: below the threshold = too weak to quantify, mostly under pKd 3.1 to 4; settings: plain residues with an end cap or a label only (N-terminal biotin on a linker: ado-ado)
Sequence (Q6P0Q8 1099-1202): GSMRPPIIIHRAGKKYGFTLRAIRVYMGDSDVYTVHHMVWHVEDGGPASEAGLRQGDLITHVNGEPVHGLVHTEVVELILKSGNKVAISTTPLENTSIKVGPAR

Binder | pKd
B1 | 3.88
B2 | below the threshold
B3 | below the threshold

biological target: T11, LIN7B, Q9HAP6; test: holdup assay; set-up: key: below the threshold = too weak to quantify, mostly under pKd 3.1 to 4; settings: plain residues with an end cap or a label only (N-terminal biotin on a linker: ado-ado)
T11 sequence (Q9HAP6 88-185, limits assumed, looked up): T2 sequence (O14910 103-200, limits assumed, looked up) with S2A, V20I, I35V, E42D, H65Q, K77Q, D78G, K89R

Binder | pKd
B1 | 3.53
B3 | below the threshold

biological target: T12, MPDZ_10, O75970; test: holdup assay; set-up: key: below the threshold = too weak to quantify, mostly under pKd 3.1 to 4; settings: plain residues with an end cap or a label only (N-terminal biotin on a linker: ado-ado)
T12 sequence (O75970 1624-1722, limits assumed, looked up): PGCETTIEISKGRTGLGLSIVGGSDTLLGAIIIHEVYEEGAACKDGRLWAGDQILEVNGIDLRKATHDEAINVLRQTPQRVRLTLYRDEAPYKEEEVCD

Binder | pKd
B1 | below the threshold
B3 | below the threshold

biological target: FRMPD3, Q5JV73; test: holdup assay; set-up: key: below the threshold = too weak to quantify, mostly under pKd 3.1 to 4; settings: plain residues with an end cap or a label only (N-terminal biotin on a linker: ado-ado)
Sequence (Q5JV73 12-100): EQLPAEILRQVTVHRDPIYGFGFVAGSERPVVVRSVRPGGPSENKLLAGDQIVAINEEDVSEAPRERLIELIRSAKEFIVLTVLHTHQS

Binder | pKd
B1 | below the threshold
B2 | below the threshold
B3 | below the threshold

biological target: T13, PDZRN3_1, Q9UPQ7; test: holdup assay; set-up: key: below the threshold = too weak to quantify, mostly under pKd 3.1 to 4; settings: plain residues with an end cap or a label only (N-terminal biotin on a linker: ado-ado)
T13 sequence (Q9UPQ7 244-349, limits assumed, looked up): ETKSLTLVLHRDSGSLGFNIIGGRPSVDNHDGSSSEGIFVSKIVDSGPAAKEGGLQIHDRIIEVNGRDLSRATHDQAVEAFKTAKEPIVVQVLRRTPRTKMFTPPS

Binder | pKd
B1 | below the threshold
B2 | below the threshold
B3 | below the threshold
